T1: C-terminal domain (CTD) of scMad1 (Saccharomyces cerevisiae, UniProt P40957)
T1 sequence (P40957 633-749 limits assumed): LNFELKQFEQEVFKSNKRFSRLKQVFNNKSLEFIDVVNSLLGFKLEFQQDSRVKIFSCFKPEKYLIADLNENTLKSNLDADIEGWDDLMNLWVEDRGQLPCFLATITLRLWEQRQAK

B1: Phosphorylated scBub1449–530: Mps1-phosphorylated scBub1 fragment containing the CM (protein)
chain: SRSPTVTAFSKDAINEVFSMFNQHYSTPGALLDGDDTTTSKFNVFENFTQEFTAKNIEDLTEVKDPKQETVSQQTTSTNETN
modifications: phosphothreonine at 453, phosphothreonine at 455, phosphoserine at 458 (mass spectrometry; co-expressed with scMps1); left off: GST, N-terminal, state not stated
notes: Mps1-phosphorylated scBub1 fragment containing the CM
B2: scBub1_369–608: scBub1 fragment co-expressed with the kinase domain of scMps1 in bacteria (protein)
chain: RKLDVLVERRQDLPSSQPPVVPKSTRIEVFKDDDNPSQSTHHKNTQVQVQTTTSILPLKPVVDGNLAHETPVKPSLTSNASRSPTVTAFSKDAINEVFSMFNQHYSTPGALLDGDDTTTSKFNVFENFTQEFTAKNIEDLTEVKDPKQETVSQQTTSTNETNDRYERLSNSSTRPEKADYMTPIKETTETDVVPIIQTPKEQIRTEDKKSGDNTETQTQLTSTTIQSSPFLTQPEPQAEK
modifications: left off: GST, N-terminal, kept
notes: scBub1 fragment co-expressed with the kinase domain of scMps1 in bacteria

Tests used:
scMad1^E–scMad2 complex [1] = experiment: ITC, Mps1-phosphorylated scBub1 fragment with scMad1^E–scMad2 complex; format: binding, Saccharomyces cerevisiae; conditions: 20°C, 25 mM HEPES pH 7.5, 150 mM NaCl, scMad1 proteins 20 µM in cell, scBub1 fragment 300 µM injected, read-out: Kd, dissociation constant (affinity)
Method: (§1) All isothermal titration calorimetry (ITC) assays were performed with a MicroCal Omega ITC200 titration calorimeter (GE Life Sciences) at 20°C. Recombinant scMad1^CTD protein or scMad1–scMad2 complexes were dialyzed into the HEPES Buffer I (25 mM HEPES, pH 7.5, 150 mM NaCl). Recombinant human Mad1^CTD protein was dialyzed into the HEPES Buffer II (25 mM HEPES, pH 7.5, 50 mM NaCl). For each titration, 300 μl of scMad1 proteins (20 µM) or human Mad1 (50 µM) were added to the calorimeter cell. The scBub1 phospho-peptides or purified scMps1-phosphorylated scBub1_449–530 fragment (300 µM) in the HEPES Buffer I or the human Bub1 phospho-peptides (500 µM) in the HEPES Buffer II were injected with an injection syringe in 19 2-μl portions. The raw data were processed and fitted with the NITPIC software package ([Keller et al., 2012]).

[2] = target: T1, C-terminal domain (CTD) of scMad1; experiment: ITC, scBub1 fragment or phospho-peptides with scMad1 CTD; format: binding; conditions: 20°C, 25 mM HEPES pH 7.5, 150 mM NaCl, scMad1 20 µM in cell, scBub1 phospho-peptide or fragment 300 µM injected, read-out: Kd, dissociation constant
Method: as §1

scMad1^E–scMad2 complex [3] = experiment: in vitro pull-down of scMad1^E–scMad2 by GST-scBub1 fragments; format: binding, Saccharomyces cerevisiae; conditions: scBub1 fragments alone or co-expressed with scMps1 kinase domain
Method: Expression of GST-BubR1^N (residues 1–370), GST-Mad2, GST-scBub1 fragments, GST-Mad1, and GST-scMad1 fragments in BL21(DE3) was induced by 0.1 mM isopropyl β-D-1-thiogalactopyranoside (IPTG) at 16°C overnight, after the OD600 reached 0.8. Mad1 and scMad1 fragments (Mad1^E) containing the Mad2-interacting motif (MIM) were co-expressed with Mad2 and scMad2, respectively. Fragments of scBub1 were co-expressed with His6-scMps1 (the kinase domain; residues 440–720). […] After sonication, lysates were cleared by centrifugation at 4°C. Supernatants were filtered by 0.45 µm filter and incubated with pre-equilibrated Glutathione Sepharose 4B beads (GE Healthcare). Protein-bound beads were washed with 40 volumes of the wash buffer I. The proteins were then eluted with reduced glutathione (Sigma) or cleaved with the PreScission protease. Eluates were dialyzed to the QA buffer (25 mM Tris-HCl, pH 8.0, 20 mM NaCl, 3 mM DTT), loaded onto a Resource Q column (GE Healthcare), and then eluted with the QB buffer (25 mM Tris-HCl, pH 8.0, 1 M NaCl, 3 mM DTT). Peak fractions were pooled and further purified with a Superdex 200 size exclusion column (GE Healthcare). […]
Recombinant bait proteins or bacteria lysates containing bait proteins were incubated with the appropriate affinity beads. […] The bead-bound proteins were analyzed by Coomassie blue staining or Western blotting. […]

Molecule | Kd (scMad1^E–scMad2 complex [1]) [µM] | Kd [2] [µM] | binding to scMad1^E–scMad2 (in words) (scMad1^E–scMad2 complex [3])
B1 | 2.21 | 2.93 | 
B2 |  |  | only the phosphorylated scBub1 bound to the scMad1^E–scMad2 complex
